“And” between values parts separate entries of the source, which are not always exact repeats. Identical values can stand only once.

Assay [1] concerns the target T1, MBP–GID1A (GIBBERELLIC ACID-… DWARF-1A, MBP fusion) (Arabidopsis thaliana, UniProt Q9MAA7 1-345).
T1 sequence: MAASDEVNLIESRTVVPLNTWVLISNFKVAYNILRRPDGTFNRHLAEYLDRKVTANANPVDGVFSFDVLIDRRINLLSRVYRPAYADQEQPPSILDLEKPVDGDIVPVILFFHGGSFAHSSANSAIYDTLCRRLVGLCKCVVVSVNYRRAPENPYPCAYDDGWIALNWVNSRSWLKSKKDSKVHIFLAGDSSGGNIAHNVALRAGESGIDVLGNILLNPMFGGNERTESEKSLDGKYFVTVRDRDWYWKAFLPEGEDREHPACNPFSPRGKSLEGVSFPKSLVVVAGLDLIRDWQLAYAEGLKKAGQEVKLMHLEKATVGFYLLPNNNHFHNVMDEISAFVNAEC
The assay is described as follows: SPR. (In general: In SPR one partner is held on a chip, and binding of the other changes the refractive index at the surface.)

The target of assay [2] is T2, sly1^E138K, Gal4 DNA-binding domain fusion (Arabidopsis thaliana, UniProt Q9STX3 1-151, E138K).
T2 sequence: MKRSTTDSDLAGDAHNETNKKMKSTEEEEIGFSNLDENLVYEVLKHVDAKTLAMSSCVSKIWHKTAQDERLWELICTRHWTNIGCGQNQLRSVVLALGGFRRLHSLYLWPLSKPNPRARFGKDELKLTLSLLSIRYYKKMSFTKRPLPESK
The assay is described as follows: yeast three-hybrid.

B1: MBP–RGL1^N (RGL1^1–137, N-terminal or DELLA domain of RGL1, MBP fusion) (domain or fragment)
chain: MKREHNHRESSAGEGGSSSMTTVIKEEAAGVDELLVVLGYKVRSSDMADVAHKLEQLEMVLGDGISNLSDETVHYNPSDLSGWVESMLSDLDPTRIQEKPDSEYDLRAIPGSAVYPRDEHVTRRSKRTRIESELSST
Take B1: in assay [1], the Ka is 5.73e+08 M⁻¹ and 3.58e+08 M⁻¹ and 6.49e+08 M⁻¹.

B2: RGL1 (REPRESSOR OF GA1-3-LIKE 1), Gal4 activation domain fusion (natural protein)
chain: MKREHNHRESSAGEGGSSSMTTVIKEEAAGVDELLVVLGYKVRSSDMADVAHKLEQLEMVLGDGISNLSDETVHYNPSDLSGWVESMLSDLDPTRIQEKPDSEYDLRAIPGSAVYPRDEHVTRRSKRTRIESELSSTRSVVVLDSQETGVRLVHALLACAEAVQQNNLKLADALVKHVGLLASSQAGAMRKVATYFAEGLARRIYRIYPRDDVALSSFSDTLQIHFYESCPYLKFAHFTANQAILEVFATAEKVHVIDLGLNHGLQWPALIQALALRPNGPPDFRLTGIGYSLTDIQEVGWKLGQLASTIGVNFEFKSIALNNLSDLKPEMLDIRPGLESVAVNSVFELHRLLAHPGSIDKFLSTIKSIRPDIMTVVEQEANHNGTVFLDRFTESLHYYSSLFDSLEGPPSQDRVMSELFLGRQILNLVACEGEDRVERHETLNQWRNRFGLGGFKPVSIGSNAYKQASMLLALYAGADGYNVEENEGCLLLGWQTRPLIATSAWRINRVE
Regarding B2, in assay [2], the “fold recruitment against the ΔDELLA mutant in the presence of GID1A/GA3” value came to 4 fold.

The values above are taken from PMC3195444 (Biochemical Journal, 2011).
